Experimental data from patent US20030021776, “Regulation of angiogenesis with zinc finger proteins” (Sangamo BioSciences, Inc., published 2003).
Changes are numbered by the printed parent chain.

Key:
USX 3A = USX 3A (synthetic); experiment: EMSA; conditions: tags: MBP fusion (pMal-c2), SP1 backbone
ZEN-7A 1 (VZ-573) = ZEN-7A 1 (VZ-573) (synthetic, UniProt P08047); experiment: EMSA; 170 mM KCl, 1.7 mM MgCl2, Zn; conditions: tags: MBP fusion (pMal-c2), SP1 backbone
Method: (§1) Binding studies were performed essentially as described (Zhang et al., supra; WO 00/41566; and WO 00/42219) except that the binding reactions contained 10 pM of labeled target site and the buffer composition was as follows: 17 mM Tris, 170 mM KCl, 1.7 mM MgCl2, 3.5 mM DTT, 0.01-0.033 mM ZnCl2, 15% glycerol, 300 μg/ml bovine serum albumin, 0.03% IGEPAL. In addition, ZFP concentrations for these studies were determined directly by measuring the DNA-binding activity of each ZFP preparation using conditions under which binding is essentially stoichiometric (ZFP and target site concentrations of >100 nM).

MX1E = molecular target: T1, MX1E (synthetic); experiment: EMSA; conditions: tags: MBP fusion (pMal-c2), SP1 backbone
T1 chain: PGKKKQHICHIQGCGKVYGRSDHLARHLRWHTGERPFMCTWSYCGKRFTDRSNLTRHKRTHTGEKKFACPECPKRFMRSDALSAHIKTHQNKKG

BVO 13A = molecular target: T2, BVO 13A (synthetic); experiment: EMSA; conditions: tags: MBP fusion (pMal-c2), SP1 backbone
T2 chain: T1 chain with S83T, A84Q

VZ-950 = molecular target: T3, VZ-950 (synthetic); experiment: EMSA; 170 mM KCl, 1.7 mM MgCl2, Zn; conditions: tags: MBP fusion (pMal-c2), SP1 backbone
T3 chain: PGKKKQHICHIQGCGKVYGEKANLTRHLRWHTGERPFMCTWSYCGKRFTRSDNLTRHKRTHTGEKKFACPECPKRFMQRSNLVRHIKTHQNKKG
Method: as §1

VEGF 1 (VZ-8) = molecular target: T4, VEGF 1 (VZ-8) (synthetic, UniProt P08047); experiment: EMSA; 170 mM KCl, 1.7 mM MgCl2, Zn; conditions: tags: MBP fusion (pMal-c2), SP1 backbone
T4 chain: T1 chain with R20T, S21T, D22S, H23N, A25R, D50R, R51S, T55Q, A81H, A84R
Method: as §1

VG 8A (VZ-475) = VG 8A (VZ-475) (synthetic); experiment: EMSA; 170 mM KCl, 1.7 mM MgCl2, Zn; conditions: tags: MBP fusion (pMal-c2), SP1 backbone
Method: as §1

VOP 29A-3 = molecular target: T5, VOP 29A-3 (synthetic); experiment: EMSA; conditions: tags: MBP fusion (pMal-c2), SP1 backbone
T5 chain: T1 chain with A25T, R26T, D50Q, R51S, N53D, A81N, S83T, A84R

VOP 35A-10 (VZ+892) [1] = molecular target: VOP 35A-10 (VZ+892) (synthetic); experiment: EMSA; Table 6 gives 0.24 nM for same helices (VZ+892); conditions: tags: MBP fusion (pMal-c2), SP1 backbone
HUM 17A (VZ+472) = molecular target: T6, HUM 17A (VZ+472) (synthetic); experiment: EMSA; 17 mM Tris, 170 mM KCl, 1.7 mM MgCl2, Zn; conditions: tags: MBP fusion (pMal-c2), SP1 backbone
T6 chain: T1 chain with H23N, D50R, R51S, S52D, N53H, T55S, A81N, S83T, A84Q
Method: as §1

HUM 19A = molecular target: T7, HUM 19A (synthetic); experiment: EMSA; conditions: tags: MBP fusion (pMal-c2), SP1 backbone
T7 chain: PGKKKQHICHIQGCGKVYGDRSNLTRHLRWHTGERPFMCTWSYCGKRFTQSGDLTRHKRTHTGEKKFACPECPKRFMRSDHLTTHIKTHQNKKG

[2] = molecular target: VOP 30A-4 (VZ+42/+530, mVZ+509) (synthetic); experiment: EMSA; conditions: tags: MBP fusion (pMal-c2), SP1 backbone
PDF 5A (VZ+590) = molecular target: T8, PDF 5A (VZ+590) (synthetic); experiment: EMSA; 170 mM KCl, 1.7 mM MgCl2, Zn; conditions: tags: MBP fusion (pMal-c2), SP1 backbone
T8 chain: T7 chain with N23S, Q50R, G52D, D53H, T55S, R78Q, D80G, H81S, T84R
Method: as §1

[3] = molecular target: T9, VOP 32B-7 (VZ+434b, mVZ+426) (synthetic); experiment: EMSA; upper bound; 10 mM Tris, 100 mM KCl, 1 mM MgCl2, 0.01 mM ZnCl2; conditions: tags: MBP fusion (pMal-c2), SP1 backbone
T9 chain: T7 chain with Q50T, D53H, T55V, T83S, T84R
Method: (§2) A three-fold dilution series of each protein was tested for binding to its DNA target (SEQ ID NOS:207, 144, 240, and 141, respectively), with the highest concentration in lane 10 and the lowest concentration in lane 2. Lane 1 contains probe alone.
(§3) Binding studies. Binding studies were performed essentially as described (Liu, et al. (2001) J. Biol. Chem. 276: 11,323-11,334), except that the buffer was modified to the following final composition: 10 mM Tris, 100 mM KCl, 1 mM MgCl₂, 10 mM DTT, 0.01 mM ZnCl₂, 10% glycerol, 200 μg/ml bovine serum albumin, 0.02% IGEPAL.
(§4) Genes for our ZFPs were assembled (see experimental procedures) and each protein was expressed and purified essentially as described (Liu et. al., 2001, supra; and Zhang et. al., supra). We then characterized the DNA-binding affinity of each ZFP using a gel shift assay. Procedures for these studies were essentially identical to those described previously (Liu et. al., 2001, supra; and Zhang et. al., supra) except for the use of a modified binding buffer.

[4] = molecular target: T9, VOP 32B-7 (VZ+434b, mVZ+426); experiment: EMSA; 170 mM KCl, 1.7 mM MgCl2, Zn; conditions: tags: MBP fusion (pMal-c2), SP1 backbone
Method: as §1

MTS 5A = MTS 5A (synthetic, UniProt P08047); experiment: EMSA; conditions: tags: MBP fusion (pMal-c2), SP1 backbone
[5] = molecular target: T10, VOP 32B-VP16 (VZ+434b-VP16) (synthetic); experiment: cell_activity; endogenous VEGF-A in HEK 293
T10 chain: T7 chain with Q50T, D53H, T55V, T83S, T84R

VOP 32A-6 (VZ+434a) = molecular target: T11, VOP 32A-6 (VZ+434a) (synthetic); experiment: EMSA; conditions: tags: MBP fusion (pMal-c2), SP1 backbone
T11 chain: T7 chain with Q50M, G52H, D53H, T55S, T83S, T84R

[6] = molecular target: T9, VOP 32B-7 (VZ+434b, mVZ+426); experiment: EMSA; conditions: tags: MBP fusion (pMal-c2), SP1 backbone
VOP 35A-10 (VZ+892) [7] = molecular target: VOP 35A-10 (VZ+892) (synthetic); experiment: EMSA; 170 mM KCl, 1.7 mM MgCl2, Zn; conditions: tags: MBP fusion (pMal-c2), SP1 backbone
Method: as §1

[8] = molecular target: VOP 30A-4 (VZ+42/+530, mVZ+509) (synthetic); experiment: EMSA; upper bound; 10 mM Tris, 100 mM KCl, 1 mM MgCl2, 0.01 mM ZnCl2; conditions: tags: MBP fusion (pMal-c2), SP1 backbone
Method: as §2, §3, §4

VEGF 1B = VEGF 1B (synthetic, UniProt P08047); experiment: EMSA; conditions: tags: MBP fusion (pMal-c2), SP1 backbone
SP1 zinc finger domain [9] = molecular target: T12, SP1 zinc finger domain (UniProt P08047 SEQ:1-94); experiment: EMSA; 100 mM KCl, 1 mM MgCl2, Zn
Method: as §3, §4

SP1 zinc finger domain [10] = molecular target: T12, SP1 zinc finger domain; experiment: EMSA; 170 mM KCl, 1.7 mM MgCl2, Zn
Method: as §1

VOP 28A-2 = VOP 28A-2 (synthetic); experiment: EMSA; conditions: tags: MBP fusion (pMal-c2), SP1 backbone
Sequence of VOP 28A-2 (synthetic) (chain, as listed by the source): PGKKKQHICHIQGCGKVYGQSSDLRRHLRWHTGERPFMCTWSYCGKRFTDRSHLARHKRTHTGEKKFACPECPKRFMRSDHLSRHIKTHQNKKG

Sequence of VOP 30A-4 (VZ+42/+530, mVZ+509) (synthetic) (chain, as listed by the source): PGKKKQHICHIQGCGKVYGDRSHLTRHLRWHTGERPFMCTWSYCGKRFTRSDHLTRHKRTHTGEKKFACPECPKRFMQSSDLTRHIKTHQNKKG
Sequence of VOP 35A-10 (VZ+892) (synthetic) (chain, as listed by the source): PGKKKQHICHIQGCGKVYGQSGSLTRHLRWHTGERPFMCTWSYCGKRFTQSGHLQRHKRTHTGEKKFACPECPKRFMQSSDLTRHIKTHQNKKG
T12 sequence (P08047 620-713): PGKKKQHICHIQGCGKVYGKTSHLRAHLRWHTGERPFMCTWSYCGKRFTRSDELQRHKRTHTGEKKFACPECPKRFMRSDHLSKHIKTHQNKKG
Sequence of VG 8A (VZ-475) (synthetic) (chain, as listed by the source): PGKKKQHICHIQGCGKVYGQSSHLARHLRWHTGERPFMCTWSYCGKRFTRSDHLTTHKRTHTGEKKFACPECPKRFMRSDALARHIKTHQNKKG
Sequence of ZEN-7A 1 (VZ-573) (P08047 other isoform, or with tags, fused parts or gaps): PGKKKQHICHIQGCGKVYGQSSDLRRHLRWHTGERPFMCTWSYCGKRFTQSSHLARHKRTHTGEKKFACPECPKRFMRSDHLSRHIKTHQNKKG
Sequence of VEGF 1B (P08047 other isoform, or with tags, fused parts or gaps): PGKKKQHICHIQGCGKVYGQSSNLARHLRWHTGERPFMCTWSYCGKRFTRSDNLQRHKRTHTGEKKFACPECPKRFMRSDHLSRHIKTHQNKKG
Sequence of MTS 5A (P08047 other isoform, or with tags, fused parts or gaps): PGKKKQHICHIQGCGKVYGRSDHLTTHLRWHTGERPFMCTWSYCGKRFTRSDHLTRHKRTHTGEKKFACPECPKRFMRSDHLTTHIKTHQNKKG

B1: USX 3A target (dsDNA)
DNA 1: GCCGGGGAG
DNA 2: CTCCCCGGC
Work on B1 yielded a Kd (USX 3A) of 0.06 nM.

B2: VZ-573 target (dsDNA)
DNA 1: GGGGGCGCTC
DNA 2: GAGCGCCCCC
Work on B2 yielded a Kd (ZEN-7A 1 (VZ-573)) of 0.63 nM.

B3: BVO 13A / MX1E target (dsDNA)
DNA 1: ATGGACGGG
DNA 2: CCCGTCCAT
In the case of B3, the Kd (MX1E) is reported as 3.4 nM and the Kd (BVO 13A) is reported as < 0.02 nM.

B4: VZ-950 target (dsDNA)
DNA 1: GAAGAGGACC
DNA 2: GGTCCTCTTC
B4 was tested, and the Kd (VZ-950) was 0.18 nM.

B5: VZ-8 target (dsDNA)
DNA 1: GGGGAGGATC
DNA 2: GATCCTCCCC
For B5, the Kd (VEGF 1 (VZ-8)) was 2.83 nM.

B6: VZ-475 target (dsDNA)
DNA 1: GTGTGGGGTT
DNA 2: AACCCCACAC
B6 was tested, and the Kd (VG 8A (VZ-475)) was 0.35 nM.

B7: VOP 29A-3 target (dsDNA)
DNA 1: GAGGCTTGG
DNA 2: CCAAGCCTC
In the case of B7, the Kd (VOP 29A-3) is reported as < 0.02 nM.

B8: VOP 35A-10 target (dsDNA)
DNA 1: GCTGGAGCA
DNA 2: TGCTCCAGC
In the case of B8, the Kd (VOP 35A-10 (VZ+892) [1]) is reported as < 0.02 nM.

B9: VZ+472 target (dsDNA)
DNA 1: AAGGGGGAGG
DNA 2: CCTCCCCCTT
In the case of B9, the Kd (HUM 17A (VZ+472)) is reported as 0.006 nM.

B10: HUM 19A target (dsDNA)
DNA 1: TGGGCAGAC
DNA 2: GTCTGCCCA
In the case of B10, the Kd (HUM 19A) is reported as 0.02 nM.

B11: VOP 30A target (dsDNA)
DNA 1: GCTGGGGGC
DNA 2: GCCCCCAGC
B11 was tested, and the Kd [2] was < 0.02 nM.

B12: VZ+590 target (dsDNA)
DNA 1: GCAGGGGCCG
DNA 2: CGGCCCCTGC
Binder B12 has a Kd (PDF 5A (VZ+590)) of 0.23 nM.

B13: VZ+434 / mVZ+426 target (dsDNA)
DNA 1: GGGGGTGACC
DNA 2: GGTCACCCCC
In the case of B13, the Kd [3] is reported as < 0.01 nM and the Kd [4] is reported as < 0.02 nM.

B14: MTS 5A target (dsDNA)
DNA 1: TGGGGGTGG
DNA 2: CCACCCCCA
With B14 the Kd (MTS 5A) was 0.07 nM.

B15: VOP 32A/32B target (dsDNA)
DNA 1: GGGGGTGAC
DNA 2: GTCACCCCC
For B15, the activity [5] was 8 fold, the Kd (VOP 32A-6 (VZ+434a)) was < 0.02 nM and the Kd [6] was < 0.02 nM.

B16: VZ+892 target (dsDNA)
DNA 1: GCTGGAGCAC
DNA 2: GTGCTCCAGC
With B16 the Kd (VOP 35A-10 (VZ+892) [7]) was 0.24 nM.

B17: mVZ+509 target (dsDNA)
DNA 1: GCTGGGGGCG
DNA 2: CGCCCCCAGC
B17 was tested, and the Kd [8] was < 0.01 nM.

B18: VEGF 1B target (dsDNA)
DNA 1: GGGGAGGAT
DNA 2: ATCCTCCCC
For B18, the Kd (VEGF 1B) was 2 nM.

B19: SP1 target (dsDNA)
DNA 1: GGGGCGGGGG
DNA 2: CCCCCGCCCC
B19 was tested, and the Kd (SP1 zinc finger domain [9]) was 0.053 nM and the Kd (SP1 zinc finger domain [10]) was 0.25 nM.

B20: VOP 28A-2 target (dsDNA)
DNA 1: GGGGGCGCT
DNA 2: AGCGCCCCC
With B20 the Kd (VOP 28A-2) was < 0.02 nM.
